Data taken from PMC12463132 (Advanced Science, 2025).
Ends that are not written are not given here.

Molecular target: T1, Sec23a/Sec24a (lacking residues 1–340) (human, UniProt Q15436 1-765; O95486 341-1093)
T1 construct: Sec23a, human, full length (pFastBac1 vector); Sec24a, human, lacking residues 1-340; The results call the protein of the pull-downs 'Sec24a' or 'Sec24', the methods 'COPII protein'; also called COPII coat proteins Sec23a/Sec24a; COPII protein; source: Hi5 insect cells (baculovirus made in Sf9), purified (HisTrap, ion exchange, SEC)
T1 sequence (Q15436 whole entry, chain 1 of 2, the tested form may be a part): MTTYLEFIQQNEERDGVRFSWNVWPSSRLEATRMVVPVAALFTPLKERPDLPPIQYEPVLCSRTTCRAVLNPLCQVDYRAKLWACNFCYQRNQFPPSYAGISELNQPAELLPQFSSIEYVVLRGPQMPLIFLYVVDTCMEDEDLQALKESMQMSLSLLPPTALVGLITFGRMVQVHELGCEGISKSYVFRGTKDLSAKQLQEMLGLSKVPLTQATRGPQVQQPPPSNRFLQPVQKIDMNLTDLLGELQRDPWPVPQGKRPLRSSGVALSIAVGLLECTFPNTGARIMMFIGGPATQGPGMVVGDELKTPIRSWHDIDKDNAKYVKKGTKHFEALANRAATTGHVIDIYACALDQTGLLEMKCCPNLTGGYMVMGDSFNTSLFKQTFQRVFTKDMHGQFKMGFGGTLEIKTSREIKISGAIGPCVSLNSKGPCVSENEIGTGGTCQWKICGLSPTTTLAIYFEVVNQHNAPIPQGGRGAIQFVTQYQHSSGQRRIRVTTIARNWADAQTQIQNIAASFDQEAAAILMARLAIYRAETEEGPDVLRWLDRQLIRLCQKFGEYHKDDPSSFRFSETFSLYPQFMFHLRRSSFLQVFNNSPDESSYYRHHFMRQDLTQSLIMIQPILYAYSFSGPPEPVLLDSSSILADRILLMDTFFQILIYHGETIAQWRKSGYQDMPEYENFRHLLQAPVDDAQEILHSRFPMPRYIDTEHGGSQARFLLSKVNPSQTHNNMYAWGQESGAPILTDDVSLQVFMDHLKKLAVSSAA
T1 sequence (O95486 341-1093, chain 2 of 2): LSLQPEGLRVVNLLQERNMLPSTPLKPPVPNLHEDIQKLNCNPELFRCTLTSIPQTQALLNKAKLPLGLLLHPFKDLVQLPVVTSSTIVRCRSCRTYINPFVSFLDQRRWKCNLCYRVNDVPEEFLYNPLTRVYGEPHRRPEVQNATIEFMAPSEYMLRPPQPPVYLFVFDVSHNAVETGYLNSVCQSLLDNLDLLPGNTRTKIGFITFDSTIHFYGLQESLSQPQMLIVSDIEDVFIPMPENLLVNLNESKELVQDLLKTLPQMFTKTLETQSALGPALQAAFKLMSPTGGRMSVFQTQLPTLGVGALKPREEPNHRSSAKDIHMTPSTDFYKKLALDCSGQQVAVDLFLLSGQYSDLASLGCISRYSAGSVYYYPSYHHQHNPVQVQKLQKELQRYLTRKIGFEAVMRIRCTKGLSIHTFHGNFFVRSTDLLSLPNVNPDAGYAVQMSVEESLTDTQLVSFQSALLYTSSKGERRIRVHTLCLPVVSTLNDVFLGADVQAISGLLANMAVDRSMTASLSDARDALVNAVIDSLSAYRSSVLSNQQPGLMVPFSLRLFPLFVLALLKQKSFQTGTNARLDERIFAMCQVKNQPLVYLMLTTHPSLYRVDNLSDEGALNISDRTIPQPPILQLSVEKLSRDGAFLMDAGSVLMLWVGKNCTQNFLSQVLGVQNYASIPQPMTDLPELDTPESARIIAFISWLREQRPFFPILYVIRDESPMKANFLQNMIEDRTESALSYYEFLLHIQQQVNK
Assay: pull-down; competition: phosphorylated GST-STING CTT on glutathione Sepharose 4B beads, IRF3 with Sec24; 20 mM HEPES-Na pH 7.4, 200 mM NaCl, 4 mM DTT, 0.1% Triton X-100, 4 °C; SDS-PAGE
Conditions: both partners purified

binding result: binds
B1: GST‐tagged human STING CTT (residue number: 335–379), phosphorylated (domain or fragment, UniProt Q86WV6 335-379, looked up)
chain: QEEKEEVTVGSLKTSAVPSTSTMSQEPELLISGMEKPLPLRTDFS
modifications: also: GST-tagged, phosphorylated by TBK1, sites not given here
notes: STING, human, C-terminal tail, residues 335-379; also called phosphorylated STING CTT; phosphorylated GST‐STING protein; source: phosphorylated in vitro by GST-tagged human TBK1, used directly; not shown: GST, N-terminal, kept
